Here are results for seven proteins from publication PMC11216086, “The structure of TRAF7 coiled-coil trimer provides insight into its function in zebrafish embryonic development” (Journal of Molecular Cell Biology, 2024).

B1: human TRAF7 ZF-CC (fragment 221–379 aa) (domain or fragment, UniProt Q6Q0C0 221-379, looked up)
chain: DHEGSCDYRPVRCPNNPSCPPLLRMNLEAHLKECEHIKCPHSKYGCTFIGNQDTYETHLETCRFEGLKEFLQQTDDRFHEMHVALAQKDQEIAFLRSMLGKLSEKIDQLEKSLELKFDVLDENQSKLSEDLMEFRRDASMLNDELSHINARLNMGILGS
notes: source: E. coli BL21 (DE3), purified (nickel-NTA, Superdex 200 size-exclusion chromatography)
B2: human TRAF7 CC (270–379 aa) F337S (domain or fragment, UniProt Q6Q0C0 270-379, looked up)
chain: GNQDTYETHLETCRFEGLKEFLQQTDDRFHEMHVALAQKDQEIAFLRSMLGKLSEKIDQLEKSLELKSDVLDENQSKLSEDLMEFRRDASMLNDELSHINARLNMGILGS
notes: as for B1
B3: human TRAF7 CC (270–379 aa) K346E (domain or fragment, UniProt Q6Q0C0 270-379, looked up)
chain: GNQDTYETHLETCRFEGLKEFLQQTDDRFHEMHVALAQKDQEIAFLRSMLGKLSEKIDQLEKSLELKFDVLDENQSELSEDLMEFRRDASMLNDELSHINARLNMGILGS
notes: Variant found in patients with developmental disorders; source: E. coli BL21 (DE3), purified (nickel-NTA, Superdex 200 size-exclusion chromatography)
B4: human TRAF7 CC (270–379 aa) R371G (domain or fragment, UniProt Q6Q0C0 270-379, looked up)
chain: GNQDTYETHLETCRFEGLKEFLQQTDDRFHEMHVALAQKDQEIAFLRSMLGKLSEKIDQLEKSLELKFDVLDENQSKLSEDLMEFRRDASMLNDELSHINAGLNMGILGS
notes: as for B3
B5: human TRAF7 CC (270–379 aa) Q310L (domain or fragment, UniProt Q6Q0C0 270-379, looked up)
chain: GNQDTYETHLETCRFEGLKEFLQQTDDRFHEMHVALAQKDLEIAFLRSMLGKLSEKIDQLEKSLELKFDVLDENQSKLSEDLMEFRRDASMLNDELSHINARLNMGILGS
notes: as for B1
B6: human TRAF7 CC (fragment 270–379 aa) (domain or fragment, UniProt Q6Q0C0 270-379, looked up)
chain: GNQDTYETHLETCRFEGLKEFLQQTDDRFHEMHVALAQKDQEIAFLRSMLGKLSEKIDQLEKSLELKFDVLDENQSKLSEDLMEFRRDASMLNDELSHINARLNMGILGS
notes: Cloned in pET32M3C; tags 'were cleaved by HRV 3C protease when needed'; also called TRAF7 CC region; TRAF7 coiled-coil domain; source: E. coli BL21 (DE3), purified (nickel-NTA, Superdex 200 size-exclusion chromatography)
B7: human TRAF7 CC (270–379 aa) I368S (domain or fragment, UniProt Q6Q0C0 270-379, looked up)
chain: GNQDTYETHLETCRFEGLKEFLQQTDDRFHEMHVALAQKDQEIAFLRSMLGKLSEKIDQLEKSLELKFDVLDENQSKLSEDLMEFRRDASMLNDELSHSNARLNMGILGS
notes: as for B1

The data set concerns the molecule itself. Put plainly: SEC-MALS; Superdex 200 gel filtration in 50 mM Tris pH 8.0, 100 mM NaCl, 10 mM EDTA, 1 mM DTT; three-angle light scattering (mini-DAWN TRISTAR) and refractive index detector; self-association (trimer). In general terms: In gel filtration, larger molecules generally elute earlier.
Usually stoichiometry N stands for a count of units in the complex or per binding partner. For B1, the “stoichiometry N” value was determined as 3. For the protein B2, the binding result was “binds”. Still for that read-out and setting: the entry for B3 is “binds”; for B4 it is “binds”; for B5 it is “binds”. Regarding B6, the “stoichiometry N” value came out at 3. Take B7: the binding result is on record as “binds”.
